From patent publication US20140087995A1 (published 2014)
Numbered stars: 1 amine (or outer) side, 2 acyl side, 3 side chain; on linkers, the order of the positions; unused ones are H or OH. Bridge positions count the residues as written; N and C are the ends. Side chains are listed from the residue outwards. Ends that are not written are not given here. * marks the point of attachment. C20 diacid = O=C(O)CCCCCCCCCCCCCCCCCCC(=O)*; γGlu = O=C(O)[C@H](CCC(=O)[*:2])N[*:1]

T1: rat calcitonin receptor (rat, UniProt P32214 25-516)
T1 construct: whole, on cells; Membranes of transiently transfected BHK tk'ts 13 cells (Assay VIII); also called rCTR
T1 sequence (looked up): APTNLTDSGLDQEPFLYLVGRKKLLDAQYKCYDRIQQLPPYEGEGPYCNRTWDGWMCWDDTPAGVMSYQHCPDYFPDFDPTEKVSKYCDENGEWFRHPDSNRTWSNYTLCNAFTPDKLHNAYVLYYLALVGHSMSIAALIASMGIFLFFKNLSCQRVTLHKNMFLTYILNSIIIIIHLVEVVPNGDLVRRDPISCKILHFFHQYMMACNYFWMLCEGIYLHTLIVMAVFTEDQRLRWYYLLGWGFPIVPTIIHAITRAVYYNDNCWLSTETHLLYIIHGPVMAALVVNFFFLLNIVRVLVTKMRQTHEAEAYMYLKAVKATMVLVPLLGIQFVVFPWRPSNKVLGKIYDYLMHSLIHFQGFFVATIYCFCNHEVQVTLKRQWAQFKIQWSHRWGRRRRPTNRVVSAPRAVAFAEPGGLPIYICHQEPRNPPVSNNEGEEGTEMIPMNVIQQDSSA

T2: human calcitonin receptor (human, UniProt P30988 25-474)
T2 construct: whole, on cells; Membranes of a stably transfected BHK cell line (Assay VII); also called hCTR; hCT
T2 sequence (looked up): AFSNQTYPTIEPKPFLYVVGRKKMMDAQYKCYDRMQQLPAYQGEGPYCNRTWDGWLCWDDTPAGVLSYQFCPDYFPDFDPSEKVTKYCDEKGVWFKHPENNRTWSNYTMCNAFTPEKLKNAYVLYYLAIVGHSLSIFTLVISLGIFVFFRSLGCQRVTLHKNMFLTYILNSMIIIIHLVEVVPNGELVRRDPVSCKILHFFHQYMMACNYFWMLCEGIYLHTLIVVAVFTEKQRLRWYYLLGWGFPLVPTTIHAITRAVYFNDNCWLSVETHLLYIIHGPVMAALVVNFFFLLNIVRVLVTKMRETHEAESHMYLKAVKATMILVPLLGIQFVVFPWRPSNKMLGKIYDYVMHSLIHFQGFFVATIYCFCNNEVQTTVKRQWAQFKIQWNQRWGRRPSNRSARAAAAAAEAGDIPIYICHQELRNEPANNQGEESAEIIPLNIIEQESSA

T3: rat amylin receptor (rat calcitonin receptor + rat RAMP 3) (rat, UniProt P32214 25-516; Q9JJ73 23-147)
T3 construct: whole, on cells; Membranes of transiently transfected BHK tk'ts 13 cells (Assay VI); also called rAmylin-R; rat amylin 3(a) receptor
T3 sequence (looked up) 1: T1 sequence (looked up)
T3 sequence (looked up) 2: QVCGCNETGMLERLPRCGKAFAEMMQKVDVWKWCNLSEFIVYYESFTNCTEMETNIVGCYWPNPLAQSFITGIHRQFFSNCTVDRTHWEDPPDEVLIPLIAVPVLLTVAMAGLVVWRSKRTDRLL

B1: N^ε1-[(4S)-4-carboxy-4-[[(4S)-4-carboxy-4-(19-carboxynonadecanoylamino)butanoyl]amino]butanoyl]-[Glu14,Arg17,Pro21,Pro27,His34,Glu35]-h-amylin (peptide)
peptide: K([γGlu-γGlu-C20 diacid])CNTATCATQRLAEFLRHSSPNFGAIPSSTNVGHETY-NH2
modifications: disulfide 2-7; N-terminus assumed
SMILES: CC[C@H](C)[C@H](NC(=O)[C@H](C)NC(=O)CNC(=O)[C@H](Cc1ccccc1)NC(=O)[C@H](CC(N)=O)NC(=O)[C@@H]1CCCN1C(=O)[C@H](CO)NC(=O)[C@H](CO)NC(=O)[C@H](Cc1c[nH]cn1)NC(=O)[C@H](CCCNC(=N)N)NC(=O)[C@H](CC(C)C)NC(=O)[C@H](Cc1ccccc1)NC(=O)[C@H](CCC(=O)O)NC(=O)[C@H](C)NC(=O)[C@H](CC(C)C)NC(=O)[C@H](CCCNC(=N)N)NC(=O)[C@H](CCC(N)=O)NC(=O)[C@@H](NC(=O)[C@H](C)NC(=O)[C@@H]1CSSC[C@H](NC(=O)[C@@H](N)CCCCNC(=O)CC[C@H](NC(=O)CC[C@H](NC(=O)CCCCCCCCCCCCCCCCCCC(=O)O)C(=O)O)C(=O)O)C(=O)N[C@@H](CC(N)=O)C(=O)N[C@@H]([C@@H](C)O)C(=O)N[C@@H](C)C(=O)N[C@@H]([C@@H](C)O)C(=O)N1)[C@@H](C)O)C(=O)N1CCC[C@H]1C(=O)N[C@@H](CO)C(=O)N[C@@H](CO)C(=O)N[C@H](C(=O)N[C@@H](CC(N)=O)C(=O)N[C@H](C(=O)NCC(=O)N[C@@H](Cc1c[nH]cn1)C(=O)N[C@@H](CCC(=O)O)C(=O)N[C@H](C(=O)N[C@@H](Cc1ccc(O)cc1)C(N)=O)[C@@H](C)O)C(C)C)[C@@H](C)O
B2: N^ε1-[(4S)-4-carboxy-4-[[(4S)-4-carboxy-4-(19-carboxynonadecanoylamino)butanoyl]amino]butanoyl]-[Glu14,Arg17,Pro21,Pro27,Pro34,Arg35]-h-amylin (peptide)
peptide: K([γGlu-γGlu-C20 diacid])CNTATCATQRLAEFLRHSSPNFGAIPSSTNVGPRTY-NH2
modifications: disulfide 2-7; N-terminus assumed
SMILES: CC[C@H](C)[C@H](NC(=O)[C@H](C)NC(=O)CNC(=O)[C@H](Cc1ccccc1)NC(=O)[C@H](CC(N)=O)NC(=O)[C@@H]1CCCN1C(=O)[C@H](CO)NC(=O)[C@H](CO)NC(=O)[C@H](Cc1c[nH]cn1)NC(=O)[C@H](CCCNC(=N)N)NC(=O)[C@H](CC(C)C)NC(=O)[C@H](Cc1ccccc1)NC(=O)[C@H](CCC(=O)O)NC(=O)[C@H](C)NC(=O)[C@H](CC(C)C)NC(=O)[C@H](CCCNC(=N)N)NC(=O)[C@H](CCC(N)=O)NC(=O)[C@@H](NC(=O)[C@H](C)NC(=O)[C@@H]1CSSC[C@H](NC(=O)[C@@H](N)CCCCNC(=O)CC[C@H](NC(=O)CC[C@H](NC(=O)CCCCCCCCCCCCCCCCCCC(=O)O)C(=O)O)C(=O)O)C(=O)N[C@@H](CC(N)=O)C(=O)N[C@@H]([C@@H](C)O)C(=O)N[C@@H](C)C(=O)N[C@@H]([C@@H](C)O)C(=O)N1)[C@@H](C)O)C(=O)N1CCC[C@H]1C(=O)N[C@@H](CO)C(=O)N[C@@H](CO)C(=O)N[C@H](C(=O)N[C@@H](CC(N)=O)C(=O)N[C@H](C(=O)NCC(=O)N1CCC[C@H]1C(=O)N[C@@H](CCCNC(=N)N)C(=O)N[C@H](C(=O)N[C@@H](Cc1ccc(O)cc1)C(N)=O)[C@@H](C)O)C(C)C)[C@@H](C)O
notes: also called compound 110
B3: N^ε1-[(4S)-4-carboxy-4-[[(4S)-4-carboxy-4-(19-carboxynonadecanoylamino)butanoyl]amino]butanoyl]-[Glu14,Arg17,Pro21,Pro27,Pro34,Glu35]-h-amylin (peptide)
peptide: K([γGlu-γGlu-C20 diacid])CNTATCATQRLAEFLRHSSPNFGAIPSSTNVGPETY-NH2
modifications: disulfide 2-7; N-terminus assumed
SMILES: CC[C@H](C)[C@H](NC(=O)[C@H](C)NC(=O)CNC(=O)[C@H](Cc1ccccc1)NC(=O)[C@H](CC(N)=O)NC(=O)[C@@H]1CCCN1C(=O)[C@H](CO)NC(=O)[C@H](CO)NC(=O)[C@H](Cc1c[nH]cn1)NC(=O)[C@H](CCCNC(=N)N)NC(=O)[C@H](CC(C)C)NC(=O)[C@H](Cc1ccccc1)NC(=O)[C@H](CCC(=O)O)NC(=O)[C@H](C)NC(=O)[C@H](CC(C)C)NC(=O)[C@H](CCCNC(=N)N)NC(=O)[C@H](CCC(N)=O)NC(=O)[C@@H](NC(=O)[C@H](C)NC(=O)[C@@H]1CSSC[C@H](NC(=O)[C@@H](N)CCCCNC(=O)CC[C@H](NC(=O)CC[C@H](NC(=O)CCCCCCCCCCCCCCCCCCC(=O)O)C(=O)O)C(=O)O)C(=O)N[C@@H](CC(N)=O)C(=O)N[C@@H]([C@@H](C)O)C(=O)N[C@@H](C)C(=O)N[C@@H]([C@@H](C)O)C(=O)N1)[C@@H](C)O)C(=O)N1CCC[C@H]1C(=O)N[C@@H](CO)C(=O)N[C@@H](CO)C(=O)N[C@H](C(=O)N[C@@H](CC(N)=O)C(=O)N[C@H](C(=O)NCC(=O)N1CCC[C@H]1C(=O)N[C@@H](CCC(=O)O)C(=O)N[C@H](C(=O)N[C@@H](Cc1ccc(O)cc1)C(N)=O)[C@@H](C)O)C(C)C)[C@@H](C)O
B4: N^ε1-[(4S)-4-carboxy-4-[[(4S)-4-carboxy-4-(19-carboxynonadecanoylamino)butanoyl]amino]butanoyl]-[His14,Arg17,Pro21,Pro27]-h-amylin (peptide)
peptide: K([γGlu-γGlu-C20 diacid])CNTATCATQRLAHFLRHSSPNFGAIPSSTNVGSNTY-NH2
modifications: disulfide 2-7; N-terminus assumed
SMILES: CC[C@H](C)[C@H](NC(=O)[C@H](C)NC(=O)CNC(=O)[C@H](Cc1ccccc1)NC(=O)[C@H](CC(N)=O)NC(=O)[C@@H]1CCCN1C(=O)[C@H](CO)NC(=O)[C@H](CO)NC(=O)[C@H](Cc1c[nH]cn1)NC(=O)[C@H](CCCNC(=N)N)NC(=O)[C@H](CC(C)C)NC(=O)[C@H](Cc1ccccc1)NC(=O)[C@H](Cc1c[nH]cn1)NC(=O)[C@H](C)NC(=O)[C@H](CC(C)C)NC(=O)[C@H](CCCNC(=N)N)NC(=O)[C@H](CCC(N)=O)NC(=O)[C@@H](NC(=O)[C@H](C)NC(=O)[C@@H]1CSSC[C@H](NC(=O)[C@@H](N)CCCCNC(=O)CC[C@H](NC(=O)CC[C@H](NC(=O)CCCCCCCCCCCCCCCCCCC(=O)O)C(=O)O)C(=O)O)C(=O)N[C@@H](CC(N)=O)C(=O)N[C@@H]([C@@H](C)O)C(=O)N[C@@H](C)C(=O)N[C@@H]([C@@H](C)O)C(=O)N1)[C@@H](C)O)C(=O)N1CCC[C@H]1C(=O)N[C@@H](CO)C(=O)N[C@@H](CO)C(=O)N[C@H](C(=O)N[C@@H](CC(N)=O)C(=O)N[C@H](C(=O)NCC(=O)N[C@@H](CO)C(=O)N[C@@H](CC(N)=O)C(=O)N[C@H](C(=O)N[C@@H](Cc1ccc(O)cc1)C(N)=O)[C@@H](C)O)C(C)C)[C@@H](C)O
notes: also called compound 92

Biological target: T1, rat calcitonin receptor
Assay: ratio IC50 rat calcitonin receptor / IC50 rat amylin receptor (reference)

| Binder | Ratio rCT/rAmylin binding |
| --- | --- |
| B1 | 159 |
| B2 | 113 |
| B3 | 88.5 |
| K([γGlu-γGlu-C20 diacid])CNTATCATQRLAEFLRHSSPNFGAILSSTPVGPETY-NH2 (disulfide 2-7 (inferred)) | 74.7 |
| B4 | 156 |

Biological target: T2, human calcitonin receptor
Assay: ratio IC50 human calcitonin receptor / IC50 human amylin receptor (reference)
Method in brief: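 Membranes (35 ng/μL final) + SPA beads, 50 mM Hepes pH 7.4 buffer with 1 mM CaCl2, 5 mM MgCl₂, 0.1% OA, 0.02% Tween20; 120 min, 25° C, shaking; centrifuged, counted; IC₅₀ by one-site binding competition.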

| Binder | Ratio hCT/hAmylin binding |
| --- | --- |
| B1 | 29.1 |
| B2 | 53.6 |
| B3 | 17.6 |
| K([γGlu-γGlu-C20 diacid])CNTATCATQRLAEFLRHSSPNFGAILSSTPVGPETY-NH2 (disulfide 2-7 (inferred)) | 22.6 |
| B4 | 145 |

Biological target: T1, rat calcitonin receptor
Assay: SPA competition with 125I-calcitonin, membranes of BHK cells with rat calcitonin receptor (Assay VIII)

| Binder | IC50 [nM] |
| --- | --- |
| B1 | 498 |
| B2 | 38.3 |
| B3 | 16.1 |
| K([γGlu-γGlu-C20 diacid])CNTATCATQRLAEFLRHSSPNFGAILSSTPVGPETY-NH2 (disulfide 2-7 (inferred)) | 33.5 |
| B4 | 104 |

Biological target: T3, rat amylin receptor (rat calcitonin …)
Assay: SPA competition with 125I-rat amylin, membranes of BHK cells with rat calcitonin receptor + rat RAMP3 (Assay VI)

| Binder | IC50 [nM] |
| --- | --- |
| B1 | 3.14 |
| B2 | 0.339 |
| B3 | 0.182 |
| K([γGlu-γGlu-C20 diacid])CNTATCATQRLAEFLRHSSPNFGAILSSTPVGPETY-NH2 (disulfide 2-7 (inferred)) | 0.449 |
| B4 | 0.668 |
